B1: novel protein: Thrombin-inhibitory protein isolated from assassin bugs (Rhodnius prolixus); contains 103 amino acids of SEQ ID NO: 3, N-terminus SEQ ID NO: 1 (protein)
chain: EGGEPCACPHALHRVCGSDGETYSNPCTLNCAKFNGKPELVKVHDGPCEPDEDEDVCQECDGDEYKPVCGSDDITYDNNCRLECASISSSPGVELKHEGPCRT

How the values were obtained:
[1] = Determination of the isoelectric point by isoelectric focusing; type: physicochemical; conditions: Ampholine PAGplate pH 3.5-9.5, located by thrombin inhibition assay
Protocol: The determination was carried out with an LKB Multiphor 2117 (horizontal system) and an LKB 2103 power supply. Precast gels were employed (Pharmacia Ampholine PAGplate pH 3.5-9.5). The standard proteins employed were amyloglucosidase, pH 3.5; soybean trypsin inhibitor, pH 4.55; β-lactoglobulin A, pH 5.2; bovine carbonic anhydrase, pH 5.85; human carbonic anhydrase, pH 6.55; horse myoglobin, pH 6.85 and 7.35; lentil lectin, pH 8.15, 8.45, 8.65 and trypsinogen, pH 9.3.
Focusing conditions: 1500 volts, 30 watts. Buffers:
cathode 1M sodium hydroxide solution
The plates were prefocused for 30 minutes to produce a pH gradient. The samples were loaded onto filter disks which lay on the gel. Focusing was continued for 30 minutes, the filter disks were removed and, after a further 30 minutes, focusing was stopped. The gels were immediately cut into 2 mm slices and transferred into distilled water. The protein eluted out of the gel slices overnight. The location of the thrombin inhibitor was determined by a thrombin inhibition assay. The pH can also be determined directly using a pH electrode.

Thrombin [2] = assay: Determination of the inhibition of thrombin by the inhibitor (Chromozym TH optical assay); type: biochemical; conditions: in vitro enzyme assay
Protocol: The purification of the protein can be monitored by a thrombin activity assay. It is expedient to use an optical assay in which a chromogenic substrate, for example Chromozym T, is converted by thrombin. The fractions containing the novel protein can be identified by their thrombin-inhibiting action on addition to this optical assay.
Thrombin (Boehringer Mannheim) was dissolved to a final concentration of 25 mU/ml in phosphate-buffered saline (PBS) ([…], […], 0.144 g/l sodium phosphate, 0.2 g/l potassium phosphate, pH 7.5).
Chromozym TH (Boehringer Mannheim) was dissolved in 20 ml of H2 O per vial.
50 μl of thrombin solution and 100 μl of Chromozym plus 25 μl of sample or buffer were placed in the wells of a microtiter plate. The absorption at 405 nm was measured at 37° C. immediately thereafter at time 0 and after 30 minutes.
When the sample was deeply colored another control without thrombin was treated as described above.
The activity of thrombin liberates a dye which absorbs at 405 nm from the chromogenic substrate. Inhibition of the thrombin by a thrombin inhibitor is evident from a smaller increase in the absorption at 405 nm and was quantified using a calibration plot.

Thrombin [3] = assay: Binding to affinity column with immobilized thrombin; conditions: immobilized thrombin on Sepharose
Protocol: The combined active fractions were loaded onto an affinity column with immobilized thrombin (diameter 1.5 cm, height 6.5 cm, volume 11.5 ml, 60 ml/h). The column was prepared as in Example 3.
The column was equilibrated with 20 mM sodium phosphate pH 7.5. After the protein solution had been loaded onto the column it was washed with 10 column volumes of equilibration buffer until the absorption at 280 nm decreased to zero.
It was then washed with 0.5M NaCl, 20 mM sodium phosphate buffer pH 7.5. This removed non-specifically adsorbed material.
Protein specifically bound to thrombin was eluted with 0.1M glycine, 0.5M NaCl pH 2.8. The column was then immediately readjusted to pH 7.5 with phosphate buffer.
2 g of CNBr-activated Sepharose (Pharmacia) were washed with 200 ml of 1 mM HCl on a suction funnel. The gel was taken up in 100 mM NaHCO3, 500 mM NaCl pH 8.3 and immediately mixed with 10,000 units of thrombin (Sigma) in 100 mM NaHCO3, 500 mM NaCl, pH 8.3.
The solution was gently shaken at 4° C. for 24 hours.
The gel material was allowed to settle and then washed with 100 mM NaHCO3, 500 mM NaCl, pH 8.3. The Sepharose was then incubated with 100 mM NaHCO3, 500 mM NaCl, 1M ethanolamine pH 8.3 for 2 hours.
To remove unbound thrombin, before use the gel material is washed once more in the column with 20 column volumes of PBS pH 7.4.

Molecule	isoelectric point [1]	inhibition of the biological activity of thrombin (Thrombin [2])	binding to thrombin affinity column (Thrombin [3])	isoelectric point ([1]; listed as novel inhibitor) [pH]
hirudin [reference compound]	≤ 3.5 pH	–	–	–
B1	3.7-4.7 pH	inhibits the biological activity of thrombin	binds specifically to a thrombin affinity column	4.2±0.5

From patent US5523287A, “Thrombin-inhibitory protein from assassin bugs” (BASF Aktiengesellschaft, priority 1991, dated 1996)
